In patent publication US20070275900:

Key:
Fmoc-Val-Pro-Doxorubicin = molecular target: T1, Fmoc-Val-Pro-Doxorubicin
T1 chain: VP

H-Asp-Pro-NAP-TSAO = molecular target: T2, H-Asp-Pro-NAP-TSAO
T2 chain: DP

H-Gly-3.4Hypro-NAP-TSAO = molecular target: T3, H-Gly-3.4Hypro-NAP-TSAO
T3 chain: GP

H-Gly-Pro-NAP-TSAO = molecular target: T4, H-Gly-Pro-NAP-TSAO
T4 chain: GP

[1] = molecular target: T5, H-Lys-Pro-Asp-Pro-NAP-TSAO
T5 chain: KPDP

H-Lys-Pro-NAP-TSAO = molecular target: T6, H-Lys-Pro-NAP-TSAO
T6 chain: KP

H-Tyr-Pro-NAP-TSAO = molecular target: T7, H-Tyr-Pro-NAP-TSAO
T7 chain: YP

H-Val-4HyPro-NAP-TSAO = molecular target: T8, H-Val-4HyPro-NAP-TSAO
T8 chain: VP

H-Val-Ala-NAP-TSAO = molecular target: T9, H-Val-Ala-NAP-TSAO
T9 chain: VA

[2] = molecular target: T10, H-Val-Ala-Val-Pro-NAP-TSAO
T10 chain: VAVP

H-Val-D-Pro-NAP-TSAO = molecular target: T11, H-Val-D-Pro-NAP-TSAO
T11 chain: VP

H-Val-Gly-NAP-TSAO = molecular target: T12, H-Val-Gly-NAP-TSAO
T12 chain: VG

H-Val-Leu-NAP-TSAO = molecular target: T13, H-Val-Leu-NAP-TSAO
T13 chain: VL

H-Val-Phe-NAP-TSAO = molecular target: T14, H-Val-Phe-NAP-TSAO
T14 chain: VF

[3] = molecular target: T15, H-Val-Pro-6-Aminoquinoline
T15 chain: VP

H-Val-Pro-Doxorubicin = molecular target: T16, H-Val-Pro-Doxorubicin
T16 chain: VP

H-Val-Pro-NAP-TSAO = molecular target: T17, H-Val-Pro-NAP-TSAO
T17 chain: VP

H-Val-Pro-Val-NAP-TSAO = molecular target: T18, H-Val-Pro-Val-NAP-TSAO
T18 chain: VPV

H-Val-Pro-Val-NHP-TSAO = molecular target: T19, H-Val-Pro-Val-NHP-TSAO
T19 chain: VPV

[4] = molecular target: T20, H-Val-Pro-Val-Pro-NAP-TSAO
T20 chain: VPVP

[5] = molecular target: T21, Me-NH-Val-Pro-Val-NHP-TSAO
T21 chain: VPV

[6] = molecular target: T22, NH2-Val-HyPro(Bzl)-NAP-TSAO
T22 chain: VP

Val-Pro-PI 1 = molecular target: T23, Val-Pro-PI 1
T23 chain: VP

[7] = molecular target: T24, Z-Val-Pro-Val-Pro-NAP-TSAO
T24 chain: VPVP

B1: purified CD26 (dipeptidyl-peptidase IV, EC 3.4.14.5) (protein)
chain: MKTPWKVLLGLLGAAALVTIITVPVVLLNKGTDDATADSRKTYTLTDYLKNTYRLKLYSLRWISDHEYLYKQENNILVFNAEYGNSSVFLENSTFDEFGHSINDYSISPDGQFILLEYNYVKQWRHSYTASYDIYDLNKRQLITEERIPNNTQWVTWSPVGHKLAYVWNNDIYVKIEPNLPSYRITWTGKEDIIYNGITDWVYEEEVFSAYSALWWSPNGTFLAYAQFNDTEVPLIEYSFYSDESLQYPKTVRVPYPKAGAVNPTVKFFVVNTDSLSSVTNATSIQITAPASMLIGDHYLCDVTWATQERISLQWLRRIQNYSVMDICDYDESSGRWNCLVARQHIEMSTTGWVGRFRPSEPHFTLDGNSFYKIISNEEGYRHICYFQIDKKDCTFITKGTWEVIGIEALTSDYLYYISNEYKGMPGGRNLYKIQLSDYTKVTCLSCELNPERCQYYSVSFSKEAKYYQLRCSGPGLPLYTLHSSVNDKGLRVLEDNSALDKMLQNVQMPSKKLDFIILNETKFWYQMILPPHFDKSKKYPLLLDVYAGPCSQKADTVFRLNWATYLASTENIIVASFDGRGSGYQGDKIMHAINRRLGTFEVEDQIEAARQFSKMGFVDNKRIAIWGWSYGGYVTSMVLGSGSGVFKCGIAVAPVSRWEYYDSVYTERYMGLPTPEDNLDHYRNSTVMSRAENFKQVEYLLIHGTADDNVHFQQSAQISKALVDVGVDFQAMWYTDEDHGIASSTAHQHIYTHMSHFIKQCFSLP
Protein B1 has a % conversion, 1 h (Fmoc-Val-Pro-Doxorubicin) of 0%, a % conversion, 4 h (Fmoc-Val-Pro-Doxorubicin) of 0% and a % conversion, 24 h (Fmoc-Val-Pro-Doxorubicin) of 0%. The Conversion %, 4 h (H-Asp-Pro-NAP-TSAO) was 7.9%, the Conversion %, 24 h (H-Asp-Pro-NAP-TSAO) was 30% and the Conversion %, 4 h (H-Gly-3.4Hypro-NAP-TSAO) was 0%. It also gave a Conversion %, 24 h (H-Gly-3.4Hypro-NAP-TSAO) of 0%, a Conversion %, 1 h (H-Gly-Pro-NAP-TSAO) of 5% and a Conversion %, 4 h (H-Gly-Pro-NAP-TSAO) of 20%. It also gave a Conversion %, 24 h (H-Gly-Pro-NAP-TSAO) of 58%, a % conversion, 1 h, to the dipeptide intermediate (a) [1] of 88% and a % conversion, 1 h, to the parent compound (b) [1] of 2.1%. The % conversion, 4 h, to the dipeptide intermediate (a) [1] was 86%, the % conversion, 4 h, to the parent compound (b) [1] was 6% and the % conversion, 24 h, to the dipeptide intermediate (a) [1] was 74%. For the same protein, the % conversion, 24 h, to the parent compound (b) [1] was 26%, the Conversion %, 4 h (H-Lys-Pro-NAP-TSAO) was 85% and the Conversion %, 24 h (H-Lys-Pro-NAP-TSAO) was 99%. It also gave a Conversion %, 1 h (H-Tyr-Pro-NAP-TSAO) of 43%, a Conversion %, 4 h (H-Tyr-Pro-NAP-TSAO) of 56% and a Conversion %, 24 h (H-Tyr-Pro-NAP-TSAO) of 79%. It also gave a Conversion %, 1 h (H-Val-4HyPro-NAP-TSAO) of 4.1%, a Conversion %, 4 h (H-Val-4HyPro-NAP-TSAO) of 18% and a Conversion %, 24 h (H-Val-4HyPro-NAP-TSAO) of 53%. For the same protein, the Conversion %, 1 h (H-Val-Ala-NAP-TSAO) was 0%, the Conversion %, 4 h (H-Val-Ala-NAP-TSAO) was 6.5% and the Conversion %, 24 h (H-Val-Ala-NAP-TSAO) was 35%. The % conversion, 1 h [2] was 12%, the % conversion, 4 h [2] was 54% and the % conversion, 24 h [2] was 70%. It also gave a Conversion %, 1 h (H-Val-D-Pro-NAP-TSAO) of 0%, a Conversion %, 4 h (H-Val-D-Pro-NAP-TSAO) of 1% and a Conversion %, 24 h (H-Val-D-Pro-NAP-TSAO) of 2%. The Conversion %, 1 h (H-Val-Gly-NAP-TSAO) was 0%, the Conversion %, 4 h (H-Val-Gly-NAP-TSAO) was 0% and the Conversion %, 24 h (H-Val-Gly-NAP-TSAO) was 0%. For the same protein, the Conversion %, 1 h (H-Val-Leu-NAP-TSAO) was 0%, the Conversion %, 4 h (H-Val-Leu-NAP-TSAO) was 0% and the Conversion %, 24 h (H-Val-Leu-NAP-TSAO) was 0%. For the same protein, the Conversion %, 1 h (H-Val-Phe-NAP-TSAO) was 0%, the Conversion %, 4 h (H-Val-Phe-NAP-TSAO) was 0% and the Conversion %, 24 h (H-Val-Phe-NAP-TSAO) was 0%. The % conversion, 1 h [3] was 99%, the % conversion, 4 h [3] was 100% and the % conversion, 24 h [3] was 100%. The % conversion, 1 h (H-Val-Pro-Doxorubicin) was 78%, the % conversion, 4 h (H-Val-Pro-Doxorubicin) was 95% and the % conversion, 24 h (H-Val-Pro-Doxorubicin) was 97%. It also gave a Conversion %, 1 h (H-Val-Pro-NAP-TSAO) of 37%, a Conversion %, 4 h (H-Val-Pro-NAP-TSAO) of 62% and a Conversion %, 24 h (H-Val-Pro-NAP-TSAO) of 61%. The “conversion of 50 µM CAM-405 to CAM-212 by 5.7 mUnits purified CD26, 30 min (HPLC)” value (H-Val-Pro-NAP-TSAO) was “fifty percent of the TSAO dipeptide derivative was converted to CAM-212 within 30 min”, the “conversion of 50 µM CAM-405 to CAM-212 by 5.7 mUnits purified CD26, first 10 min (HPLC)” value (H-Val-Pro-NAP-TSAO) was “Within the first 10 min of the reaction, at least 20% of CAM-405 had been converted to CAM-212” and the “hydrolysis of 50 µM CAM-405 by 5.7 mUnits purified CD26, 60 min (HPLC)” value (H-Val-Pro-NAP-TSAO) was “˜67% of CAM-405 was hydrolysed after 60 min”. For the same protein, the Conversion %, 4 h (H-Val-Pro-Val-NAP-TSAO) was 51%, the Conversion %, 24 h (H-Val-Pro-Val-NAP-TSAO) was 70% and the Conversion %, 1 h (H-Val-Pro-Val-NHP-TSAO) was 33%. The Conversion %, 4 h (H-Val-Pro-Val-NHP-TSAO) was 60%, the % conversion, 1 h [4] was 43% and the % conversion, 4 h [4] was 86%. For the same protein, the % conversion, 24 h [4] was 88%, the Conversion %, 1 h [5] was 0% and the Conversion %, 4 h [5] was 0%. The Conversion %, 24 h [5] was 0%, the Conversion %, 4 h [6] was 0% and the Conversion %, 24 h [6] was 0%. For the same protein, the “conversion of PI-2 to PI-1 by purified CD26” value (Val-Pro-PI 1) was “Within 60 min, PI-2 was completely converted to PI-1 by purified CD26”, the % conversion, 1 h [7] was 0% and the % conversion, 4 h [7] was 0%. For the same protein, the % conversion, 24 h [7] was 0%.
